Values belong to the binder of their own block, whether it stands above or below them.
How the values were obtained:
[1] = target: T1, Arabidopsis thaliana UFD1B (Arabidopsis thaliana, UniProt Q9SJV0 1-340); experiment: MST; pH 6.5; AMPPNP
T1 chain: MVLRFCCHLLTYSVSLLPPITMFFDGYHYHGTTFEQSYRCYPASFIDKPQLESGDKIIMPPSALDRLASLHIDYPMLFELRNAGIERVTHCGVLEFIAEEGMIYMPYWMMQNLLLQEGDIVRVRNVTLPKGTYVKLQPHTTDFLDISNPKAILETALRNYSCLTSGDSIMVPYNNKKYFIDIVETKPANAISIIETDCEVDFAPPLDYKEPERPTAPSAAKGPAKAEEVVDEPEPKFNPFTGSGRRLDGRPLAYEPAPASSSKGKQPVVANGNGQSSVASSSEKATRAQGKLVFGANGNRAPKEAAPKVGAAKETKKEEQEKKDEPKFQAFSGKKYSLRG

[2] = target: T1, Arabidopsis thaliana UFD1B; experiment: MST; pH 7.5; AMPPNP
[3] = target: T1, Arabidopsis thaliana UFD1B; experiment: ITC; AMPPNP; AtCDC48A saturated with AtNPL4
AtNPL4B F105A = target: T2, AtNPL4B F105A (Arabidopsis thaliana, UniProt Q9LYC2 1-413, F105A); experiment: ITC; AMPPNP
T2 sequence: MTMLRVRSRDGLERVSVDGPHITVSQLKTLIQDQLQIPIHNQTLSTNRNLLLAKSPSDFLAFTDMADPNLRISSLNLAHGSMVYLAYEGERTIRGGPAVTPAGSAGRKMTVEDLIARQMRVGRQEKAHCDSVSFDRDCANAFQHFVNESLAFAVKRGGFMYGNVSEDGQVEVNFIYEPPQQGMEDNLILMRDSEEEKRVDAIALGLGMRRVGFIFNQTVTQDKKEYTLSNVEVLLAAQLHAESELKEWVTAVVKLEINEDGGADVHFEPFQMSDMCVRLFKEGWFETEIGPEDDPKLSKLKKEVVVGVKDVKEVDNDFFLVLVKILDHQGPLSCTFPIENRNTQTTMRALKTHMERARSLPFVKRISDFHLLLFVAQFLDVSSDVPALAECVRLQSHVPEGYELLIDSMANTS

AtNPL4B UBXL domain = target: T3, AtNPL4B UBXL domain (Arabidopsis thaliana, UniProt Q9LYC2 1-89); experiment: ITC; AMPPNP
T3 chain: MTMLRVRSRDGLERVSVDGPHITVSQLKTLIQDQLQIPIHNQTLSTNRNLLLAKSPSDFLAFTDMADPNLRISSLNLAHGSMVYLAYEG

[4] = target: T1, Arabidopsis thaliana UFD1B; experiment: MST; pH 6.5
[5] = target: T1, Arabidopsis thaliana UFD1B; experiment: MST; pH 7.5

Kd [1]: 2.9 µM | Kd [2]: 4.6 µM | Kd [3]: 3.8 µM
B1: AtCDC48A saturated with AtNPL4 (complex)
chain 1: MSTPAESSDSKSKKDFSTAILERKKSPNRLVVDEAINDDNSVVSLHPATMEKLQLFRGDTILIKGKKRKDTVCIALADETCEEPKIRMNKVVRSNLRVRLGDVISVHQCPDVKYGKRVHILPVDDTVEGVTGNLFDAYLKPYFLEAYRPVRKGDLFLVRGGMRSVEFKVIETDPAEYCVVAPDTEIFCEGEPVKREDEERLDDVGYDDVGGVRKQMAQIRELVELPLRHPQLFKSIGVKPPKGILLYGPPGSGKTLIARAVANETGAFFFCINGPEIMSKLAGESESNLRKAFEEAEKNAPSIIFIDEIDSIAPKREKTNGEVERRIVSQLLTLMDGLKSRAHVIVMGATNRPNSIDPALRRFGRFDREIDIGVPDEIGRLEVLRIHTKNMKLAEDVDLERISKDTHGYVGADLAALCTEAALQCIREKMDVIDLEDDSIDAEILNSMAVTNEHFHTALGNSNPSALRETVVEVPNVSWNDIGGLENVKRELQETVQYPVEHPEKFEKFGMSPSKGVLFYGPPGCGKTLLAKAIANECQANFISVKGPELLTMWFGESEANVREIFDKARQSAPCVLFFDELDSIATQRGGGSGGDGGGAADRVLNQLLTEMDGMNAKKTVFIIGATNRPDIIDSALLRPGRLDQLIYIPLPDEDSRLNIFKAALRKSPIAKDVDIGALAKYTQGFSGADITEICQRACKYAIRENIEKDIEKEKRRSENPEAMEEDGVDEVSEIKAAHFEESMKYARRSVSDADIRKYQAFAQTLQQSRGFGSEFRFENSAGSGATTGVADPFATSAAAAGDDDDLYN
chain 2: MMMLRIRSRDGLERVTAEGAHITVSQLKTLIADQLQIPLHKQTLSTNRDLLLAKTPADLLAFTDLTDPNLPLSSLNLGHGSMLYLAYDGERSIPGAPPVTPAGSFGRKMTVDDLIARQMRVTRQETSHCDSVSFDRDAANAFQHYVNESLAFAVKRGGFMYGTVTEEGQVEVDFIYEPPQQGTEANLILMRDADEEKRVDAIAMGLGMRRVGFIFNQTVVQDKTEYTLSNAEVLQAAELHAESELKEWVTAVVKLEVNEDGGADVHFEAFQMSDMCIRLFKEEWFETEIMPDDDPKLSKMKKEVVVGVKDLKEVDNDFFLVLVRILDHQGPLSSTFPIENRSSRATMRALKTHLDRAKSLPLVKKMSDFHLLLFVAQFLDVSSDVPALAECVRLQSPVPEGYALLIESMANTC
modifications: Alexa-488 dye label in the MST experiments only

Kd (AtNPL4B F105A): 4.6 µM | Kd (AtNPL4B UBXL domain): 3.2 µM
B2: Arabidopsis thaliana CDC48A (enzyme)
chain: MSTPAESSDSKSKKDFSTAILERKKSPNRLVVDEAINDDNSVVSLHPATMEKLQLFRGDTILIKGKKRKDTVCIALADETCEEPKIRMNKVVRSNLRVRLGDVISVHQCPDVKYGKRVHILPVDDTVEGVTGNLFDAYLKPYFLEAYRPVRKGDLFLVRGGMRSVEFKVIETDPAEYCVVAPDTEIFCEGEPVKREDEERLDDVGYDDVGGVRKQMAQIRELVELPLRHPQLFKSIGVKPPKGILLYGPPGSGKTLIARAVANETGAFFFCINGPEIMSKLAGESESNLRKAFEEAEKNAPSIIFIDEIDSIAPKREKTNGEVERRIVSQLLTLMDGLKSRAHVIVMGATNRPNSIDPALRRFGRFDREIDIGVPDEIGRLEVLRIHTKNMKLAEDVDLERISKDTHGYVGADLAALCTEAALQCIREKMDVIDLEDDSIDAEILNSMAVTNEHFHTALGNSNPSALRETVVEVPNVSWNDIGGLENVKRELQETVQYPVEHPEKFEKFGMSPSKGVLFYGPPGCGKTLLAKAIANECQANFISVKGPELLTMWFGESEANVREIFDKARQSAPCVLFFDELDSIATQRGGGSGGDGGGAADRVLNQLLTEMDGMNAKKTVFIIGATNRPDIIDSALLRPGRLDQLIYIPLPDEDSRLNIFKAALRKSPIAKDVDIGALAKYTQGFSGADITEICQRACKYAIRENIEKDIEKEKRRSENPEAMEEDGVDEVSEIKAAHFEESMKYARRSVSDADIRKYQAFAQTLQQSRGFGSEFRFENSAGSGATTGVADPFATSAAAAGDDDDLYN

Kd [4]: 75.4 µM | Kd [5]: 256 µM
B3: Arabidopsis thaliana NPL4 (natural protein)
chain: MMMLRIRSRDGLERVTAEGAHITVSQLKTLIADQLQIPLHKQTLSTNRDLLLAKTPADLLAFTDLTDPNLPLSSLNLGHGSMLYLAYDGERSIPGAPPVTPAGSFGRKMTVDDLIARQMRVTRQETSHCDSVSFDRDAANAFQHYVNESLAFAVKRGGFMYGTVTEEGQVEVDFIYEPPQQGTEANLILMRDADEEKRVDAIAMGLGMRRVGFIFNQTVVQDKTEYTLSNAEVLQAAELHAESELKEWVTAVVKLEVNEDGGADVHFEAFQMSDMCIRLFKEEWFETEIMPDDDPKLSKMKKEVVVGVKDLKEVDNDFFLVLVRILDHQGPLSSTFPIENRSSRATMRALKTHLDRAKSLPLVKKMSDFHLLLFVAQFLDVSSDVPALAECVRLQSPVPEGYALLIESMANTC
modifications: Alexa-488 dye label in the MST experiments only

Source: doi:10.1101/2025.03.28.645892 (2025)
